Reference: article PMC8216470

Tests used:
Test in all cases: MST
Conditions in all cases: MST with Cy5-labelled tRNA; buffer, salt, pH and temperature not in the material (protein storage: 10 mM Tris-HCl pH 8.0, 200 mM NaCl, 0.5 mM TCEP)
[1] = test system: ADAT2;ADAT3 WT (Mus musculus;Mus musculus)
[2] = test system: ADAT2;ADAT3-Δloop (Mus musculus;Mus musculus)
TadA (Escherichia coli) = test system: TadA (Escherichia coli)
[3] = test system: ADAT2;ADAT3-ΔN (Mus musculus;Mus musculus)
[4] = test system: ADAT2;ADAT3-V128I (Mus musculus;Mus musculus)
[5] = test system: ADAT2;ADAT3-V128L (Mus musculus;Mus musculus)
[6] = test system: ADAT2;ADAT3-V128M (Mus musculus;Mus musculus)

| Substance | Kd [1] [µM] | Kd [2] [µM] | Kd (TadA (Escherichia coli)) [µM] | Kd [3] [µM] | Kd [4] [µM] | Kd [5] [µM] | Kd [6] [µM] |
| --- | --- | --- | --- | --- | --- | --- | --- |
| tRNAAla(AGC) | 8 | 6.7 |  |  |  |  |  |
| tRNAArg(ACG) | 3.7 | 6.5 | 6.6 |  |  |  |  |
| tRNAGly(CCC) | 3 |  |  | 35.8 |  |  |  |
| tRNAVal(AAC) | 3.5 | 6.7 |  | 44.5 | 3.3 | 4.2 | 2.5 |
